Patent US20230285583A1, “LIQUID FORMULATION OF LONG-ACTING CONJUGATE OF GLUCAGON, GLP-1, AND GIP TRIGONAL AGONIST” (HANMI PHARM, CO., LTD., priority 2020, published 2023)
Bridge positions count the residues as written; N and C are the ends. Square brackets hold non-standard residues; d marks the D form. Ends that are not written are not given here. * marks the point of attachment. Acetyl(2-(4-imidazolyl)) = O=C(Cc1c[nH]cn1)*; Aib = CC(C)(N)C(=O)O

What was measured:
Test in all cases: cell-based or functional assay
human GCG receptor = human GCG receptor (human, UniProt P47871 26-477)
Chain of human GCG receptor (P47871 26-477): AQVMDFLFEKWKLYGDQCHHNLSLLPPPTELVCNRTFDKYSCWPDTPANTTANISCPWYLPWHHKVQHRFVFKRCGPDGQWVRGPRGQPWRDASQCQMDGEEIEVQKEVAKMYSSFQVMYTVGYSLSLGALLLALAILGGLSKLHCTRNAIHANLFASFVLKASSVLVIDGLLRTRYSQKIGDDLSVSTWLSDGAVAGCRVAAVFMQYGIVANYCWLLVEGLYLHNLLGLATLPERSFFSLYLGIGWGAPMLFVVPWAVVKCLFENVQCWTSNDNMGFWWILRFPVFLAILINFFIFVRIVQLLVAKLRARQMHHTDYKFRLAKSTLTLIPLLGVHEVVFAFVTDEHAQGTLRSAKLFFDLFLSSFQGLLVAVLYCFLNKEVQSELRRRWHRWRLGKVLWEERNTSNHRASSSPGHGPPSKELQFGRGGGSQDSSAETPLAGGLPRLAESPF

human GIP receptor = biological target: T1, human GIP receptor (human, UniProt P48546 22-466)
T1 sequence (looked up): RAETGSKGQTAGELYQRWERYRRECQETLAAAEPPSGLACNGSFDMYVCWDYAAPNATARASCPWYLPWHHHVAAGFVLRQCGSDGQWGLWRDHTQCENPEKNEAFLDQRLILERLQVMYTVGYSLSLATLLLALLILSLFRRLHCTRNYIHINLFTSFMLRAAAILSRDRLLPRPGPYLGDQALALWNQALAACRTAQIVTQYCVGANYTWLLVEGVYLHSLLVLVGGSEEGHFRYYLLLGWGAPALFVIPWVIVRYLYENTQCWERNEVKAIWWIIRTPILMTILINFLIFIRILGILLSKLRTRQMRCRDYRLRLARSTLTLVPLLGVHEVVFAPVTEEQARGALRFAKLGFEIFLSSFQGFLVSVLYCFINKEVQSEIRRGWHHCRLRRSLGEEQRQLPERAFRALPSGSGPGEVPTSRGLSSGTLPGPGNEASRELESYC

human GLP-1 receptor = human GLP-1 receptor (human, UniProt P43220 24-463)

Row | Binder | In Vitro Activity Compared to Native Peptide (%) vs. Glucagon (relative titer from cAMP EC50) (human GCG receptor) | In Vitro Activity Compared to Native Peptide (%) vs. GIP (relative titer from cAMP EC50) (human GIP receptor) | In Vitro Activity Compared to Native Peptide (%) vs. GLP-1 (relative titer from cAMP EC50) (human GLP-1 receptor)
1 | H[Aib]EGTFTSDYSIAMDEIHQKDFVDWLLAEC (bridge 16-20; not fully specified (bridges)) [trigonal agonist of SEQ ID NO: 15] | 1.4% | 0.1% | 30.6%
2 | H[Aib]QGTFTSDYSKYLDEKRQKEFVNWLLAQC (bridge 16-20; not fully specified (bridges)) [trigonal agonist of SEQ ID NO: 17] | 4.9% | 0.8% | 57.9%
3 | Y[Aib]QGTFTSDYSKCLDERAAKEFVQWLLDHHPSSGQPPPS (bridge 16-20; not fully specified (bridges)) [trigonal agonist of SEQ ID NO: 24] | 9.6% | 62.8% | 24.3%
4 | H[Aib]QGTFTSDYSKYLDEKAQKEFVQWLLDTC (bridge 16-20; not fully specified (bridges)) [trigonal agonist of SEQ ID NO: 3] | 0.7% | 0.8% | 142%
5 | Y[Aib]QGTFTSDCSKYLDERAAKDFVQWLLDHHPSSGQPPPS (bridge 16-20; not fully specified (bridges); ends not checked) [trigonal agonist of SEQ ID NO: 27] | 1% | 1.6% | 11.5%
6 | Y[Aib]QGTFTSDYSKYLDECAAKEFVQWLLDHHPSSGQPPPS (bridge 16-20; not fully specified (bridges)) [trigonal agonist of SEQ ID NO: 19] | 60.1% | 92.9% | 64.6%
7 | Y[Aib]QGTFTSDYSKCLDEKRAKEFVQWLLDHHPSSGQPPPS (bridge 16-20; not fully specified (bridges)) [trigonal agonist of SEQ ID NO: 2] | 140% | 59.7% | 20.1%
8 | [Acetyl(2-(4-imidazolyl))][Aib]QGTFTSDYSKCLDEKRAKEFVQWLLDHHPSSGQPPPS (bridge 16-20; not fully specified (bridges)) [trigonal agonist of SEQ ID NO: 29] | 0.9% | 1% | 12.9%
9 | Y[Aib]QGTFTSDYSKYLDEKRAKDFVQWLLDHHPSSGQPPPSC (bridge 16-20; not fully specified (bridges)) [trigonal agonist of SEQ ID NO: 31] | 47.6% | 11.7% | 10.3%
10 | Y[Aib]QGTFTSDYSKYLDERACKDFVQWLLDHHPSSGQPPPS (bridge 16-20; not fully specified (bridges); ends not checked) [trigonal agonist of SEQ ID NO: 26] | 12.7% | 94.7% | 90.1%
11 | Y[Aib]QGTFTSDYSKCLDEKRAKDFVQWLLDHHPSSGQPPPS (bridge 16-20; not fully specified (bridges); ends not checked) [trigonal agonist of SEQ ID NO: 25] | 71.3% | 64.4% | 15.1%
12 | H[Aib]QGTFTSDYSKYLDEKRQKEFVQWLLDTKC (bridge 16-20; not fully specified (bridges)) [trigonal agonist of SEQ ID NO: 33] | 14% | 0.12% | 51%
13 | Y[Aib]QGTFTSDYSKCLDEKAAKEFVQWLLDHHPSSGQPPPS (bridge 16-20; not fully specified (bridges)) [trigonal agonist of SEQ ID NO: 23] | 8.8% | 107% | 27.9%
14 | H[Aib]QGTFTSDYSIAMDEIHQKDFVNWLLAQC (lactam 16-20) [trigonal agonist of SEQ ID NO: 16] | 0.7% | 2.4% | 27.1%
15 | [Acetyl(2-(4-imidazolyl))][Aib]QGTFTSDYSKYLDECRAKEFVQWLLDHHPSSGQPPPS (bridge 16-20; not fully specified (bridges)) [trigonal agonist of SEQ ID NO: 28] | 5.4% | 3% | 22.6%
16 | H[Aib]QGTFTSDYSKYLDEKRQKEFVQWLLDTC (bridge 16-20; not fully specified (bridges)) [trigonal agonist of SEQ ID NO: 13] | 7.5% | 0.3% | 44.1%
17 | Y[Aib]QGTFTSDYSKYLDECAAKDFVQWLLDHHPSSGQPPPS (bridge 16-20; not fully specified (bridges)) [trigonal agonist of SEQ ID NO: 22] | 46.2% | 39.8% | 28.5%
18 | H[Aib]EGTFTSDYSIAMDEIHQKDFVNWLLAQC (lactam 16-20) [trigonal agonist of SEQ ID NO: 14] | 8.4% | 1.3% | 161%
19 | Y[Aib]QGTFTSDYSKYLDECRAKDFVQWLLDHHPSSGQPPPS (bridge 16-20; not fully specified (bridges)) [trigonal agonist of SEQ ID NO: 21] | 172% | 17.2% | 15.8%
20 | H[Aib]QGTFTSDYSKYLDEKRQKEFVQWLLNTKC (bridge 16-20; not fully specified (bridges)) [trigonal agonist of SEQ ID NO: 18] | 2.6% | 0.2% | 39.1%
21 | H[Aib]QGTFTSDYSKCLDEKRAKEFVQWLLDHHPSSGQPPPS (bridge 16-20; not fully specified (bridges)) [trigonal agonist of SEQ ID NO: 20] | 25.2% | 11.6% | 95.4%
22 | Y[Aib]QGTFTSDYSKYLDEKAAKEFVQWLLDHHPSSGQPPPSC (bridge 16-20; not fully specified (bridges)) [trigonal agonist of SEQ ID NO: 30] | 8.5% | 18% | 35.1%
23 | Y[Aib]QGTFTSDYSKYLDEKAAKDFVQWLLDHHPSSGQPPPSC (bridge 16-20; not fully specified (bridges)) [trigonal agonist of SEQ ID NO: 32] | 12.2% | 35.5% | 38.7%
